Data reported in US9844589.

Experiments:
[1] = target: CON6 gp140CF (artificial HIV-1 group M consensus)
[2] = target: CON6 gp120 (artificial HIV-1 group M consensus); assay: ELISA endpoint titer (3 fold over background) on CON6 gp120

Row | Substance | concentration at endpoint titer [1] [µg/mL] | concentration at endpoint titer [2] [µg/mL]
1 | 2F5 (antibody) | 0.016 | 
2 | 447 (antibody) |  | < 0.003
3 | A32 (antibody) |  | < 0.125
4 | IgG1b12 (antibody) |  | < 0.002
